Experiments:
[1] = immunoblot of total EGFR; details: glycan lost; control: wild-type Flag-EGFR
[2] = RT-qPCR of HCV RNA, 48 h infection; details: glycan lost; control: EGFR KO Huh7 complemented with wild-type EGFR
[3] = confocal EGFR/Lamp1 colocalisation after EGF, Huh7; details: glycan lost; control: wild-type EGFR
[4] = target: T1, His6-SNAIL (UniProt O95863 1-264); assay: EMSA; increasing SNAIL; Beyotime EMSA kit GS005 per manufacturer; 8% native PAGE; buffer, salt, pH and temperature not stated; details: protein: recombinant; tags: His6 (pET28a); label: 5' FAM; blunt
T1 sequence (O95863 whole entry): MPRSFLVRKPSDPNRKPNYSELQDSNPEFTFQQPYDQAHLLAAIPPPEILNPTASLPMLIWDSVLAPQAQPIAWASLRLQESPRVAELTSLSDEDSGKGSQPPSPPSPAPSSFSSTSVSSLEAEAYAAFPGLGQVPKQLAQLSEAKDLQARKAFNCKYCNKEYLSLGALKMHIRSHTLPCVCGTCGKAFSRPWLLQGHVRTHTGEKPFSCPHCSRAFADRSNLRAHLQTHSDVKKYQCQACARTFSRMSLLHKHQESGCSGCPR

[5] = target: T1, His6-SNAIL; assay: competition; 10-fold excess (300 nM) unlabeled probe abolished binding to WT-FAM probe; Beyotime EMSA kit GS005 per manufacturer; 8% native PAGE; buffer, salt, pH and temperature not stated; details: protein: recombinant; tags: His6 (pET28a); blunt
[6] = target: T1, His6-SNAIL; assay: EMSA; text: SNAIL lost ability to bind mutant probe; legend and Methods leave open whether labeled or competitor; Beyotime EMSA kit GS005 per manufacturer; 8% native PAGE; buffer, salt, pH and temperature not stated; details: protein: recombinant; tags: His6 (pET28a); label: 5' FAM per Methods (legend also mentions mutant probe added at 300 nM); blunt

**Q.** For “Epidermal growth factor receptor (EGFR, ErbB1, HER1): N352Q”, which expression_or_secretion [1] is on record?
**A.** no change

**Q.** What about the “other: viral replication” value [2] of the same molecule?
**A.** decreases

**Q.** What about the localisation_or_trafficking [3] of the same molecule?
**A.** decreases

B1: FUT8 promoter WT probe (-295 to -260) (dsDNA)
DNA 1: TACACTTCCTGACGTGGCAGGTGAGAGAGTGTGGGT
DNA 2: ACCCACACTCTCTCACCTGCCACGTCAGGAAGTGTA
**Q.** Does B1 bind [4]?
**A.** binds

B2: FUT8 promoter WT unlabeled competitor (dsDNA)
DNA 1: TACACTTCCTGACGTGGCAGGTGAGAGAGTGTGGGT
DNA 2: ACCCACACTCTCTCACCTGCCACGTCAGGAAGTGTA
**Q.** Does B2 bind [5]?
**A.** binds

B3: FUT8 promoter Mut probe (dsDNA)
DNA 1: TACACTTCCTGACGTGAGAGGGGTCAGAGTGTGGGT
DNA 2: ACCCACACTCTGACCCCTCTCACGTCAGGAAGTGTA
**Q.** Does B3 bind [6]?
**A.** no binding

From article PMC10803816, “EGFR core fucosylation, induced by hepatitis C virus, promotes TRIM40-mediated-RIG-I ubiquitination and suppresses interferon-I antiviral defenses”
